System: K4 kissing-loop RNA reporter
Experiment: apparent KD of K4 kissing-loop reporter; higher = weaker reporter binding
Conditions: Eterna round: R107
Procedure: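 RNA-MaP round R107: designed RNA switches with theophylline, tryptophan, arginine or FMN aptamers are transcribed on-chip within common flanks. They are titrated with a labelled K4 kissing-loop RNA reporter in RNA-MaP buffer (100 mM Tris pH 7.5, 80 mM KCl, 4 mM MgCl2), without ligand or with the indicated ligand. Median apparent KD per design.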

[1] = input ligand: theophylline 20 uM
[2] = input ligand: tryptophan 2.4 mM
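Further: bound reporter read as fluorescence of individual clusters on recovered sequencing chips by microscopy, with normalized cluster intensities fitted with a binding model.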

Row | Sequence | apparent KD of K4 kissing-loop reporter (input ligand: FMN 200 uM) [nM] | apparent KD of K4 kissing-loop reporter (input ligand: arginine 13.2 mM) [nM] | apparent KD of K4 kissing-loop reporter (input ligand: none) [nM] | apparent KD of K4 kissing-loop reporter [1] [nM] | apparent KD of K4 kissing-loop reporter [2] [nM]
1 | UGAUACCAGACGGCCGCCACUCCUGCAGUCAAAGACUGCUAGGAAAUAUUCGUCCAGUGAUGUUGGAGGACCGGGUCUGGUAUCU [TrypBX 10 #SwitchBubble #Palindromic #StaticStem] | 791 | 600 | 740 | 633 | 894
2 | UGAUACCAGACGGCCGCCACUGCACCAGUCAAUGACUGAGUGUAGUAUUGCUCAGUGAUGUUGAGUAGGACCGGGUCUGGUAUCU [Mod of Eli's TrypBX 8] | 109 | 113 | 108 | 128 | 115
3 | UGAUACCAGACGGCCGCCACUGCGCCAGUCAAUGACUGAGCGCGGUGGCGCUCAGUGAUGUUGAGCAGGACCGGGUCUGGUAUCU [Mod of Eli's TrypBX 8 v5] | 149 | 126 | 146 | 144 | 147
4 | UGAUACCAGACGGCCGCCACUGGGACCGGGAGUGAUGUUCCGAAAAUUAAAUGCUCGGCCGCCACUAGGACCGGGUCUGGUAUCU [TrypBX 29 #DoubleAptamer #SwitchBubble] | 727 | 407 | 446 | 231 | 453
5 | UGAUACCAGACGGCCGCCACUUCCGUAAGUCAAAGACUUACCAAGAGAAUCGUCCAGUGAUGUUGGAGGACCGGGUCUGGUAUCU [FiskerMod 7 - Jieux - Exclusion - Tryptophan B] | 931 | 654 | 979 | 849 | 872
6 | UGAUACCAGACUGAUACCAGCCAGUGAUGUUGGCUGAAAUCAGGGUCAAAGACCCUGUCUGGCCCUUGGCAGCAGUCUGGUAUCU [TheoBX 19 #SwitchBubble #StaticStem] | 329 | 251 | 291 | 332 | 281
7 | UGAUAGCCAGUGAUGUUGGCAUGUACUGAAGGAGCGCGUGGAAACGCAGGUAGGUCGCAGUUCCUUGCCAAUUGAUCGAAAGAUC [#09 K4 Arginine A Exclusion] | 249 | 288 | 320 | 395 | 239
8 | UGAUAGGACAGAAGGAGCGGAAGUGAUGUUUCCAAUGGAAUUAAGGUGUCAAAGACACCCUUCCAGGUAGGUCGCUGUCCUAUCU [ArgBX 18 #Palindromic #SwitchBubble #StaticStem] | 156 | 161 | 155 | 159 | 145
9 | UGAUAGGACAGAAGGAGCGGAAUGCUGUCCAAAAGGACAGCAAAUAUAAAAGGAGUGAUGUUCCAGGUAGGUCGCUGUCCUAUCU [ArgBX 20 #SwitchBubble #StaticStem] | 271 | 206 | 219 | 234 | 203
10 | UGAUAGGACAGAAGGAGCGGGAGUGAUGUUCCCAAAAGAAUAAGGUGUCAAAAGACACCCUUCCAGGUAGGUCGCUGUCCUAUCU | 82.2 | 131 | 106 | 119 | 87.4
11 | UGAUAGGACAGAAGGAGCGGGAGUGAUGUUCCCAAAAGGGUAAGGUGUCAAAAGACACCCUCCCAGGUAGGUCGCUGUCCUAUCU | 155 | 191 | 154 | 175 | 148
12 | UGAUAGGACAGAAGGAGCGGUAGUGAUGUUGCCAAAAGGAUAAGGUGUCAAAAGACACCCUACCAGGUAGGUCGCUGUCCUAUCU | 175 | 216 | 154 | 179 | 152
13 | UGAUAGGAGUGAAGGAGCGGGAGUGAUGUUCCCAAAAUGGAAGCCUGUAAAAUACAGGCCUCCCAGGUAGGUCGCACUCCUAUCU [KL-XARG-B17] | 98.3 | 112 | 101 | 117 | 94.7
14 | UGAUUUAACUGAAGGAGCGGCAAUUGAUAAGUAAAUAUAGUGAUGUUAUAUAAGAUAGAGAGCCAGGUAGGUCGCAGAGGUAUUA [ExArgB.M] | 154 | 154 | 132 | 210 | 142
15 | UGCACGGGCUCGGCCGCCACUCCAGCGGGUCGAAAGGUCCGCUACUGAGUGAUGUUCGGUUGGAGGAGGACCGGGAGCCCGUGCA [#2 Exclusion - Tryptophan B Attempt #28 (HarryS)] | 98.9 | 97.9 | 122 | 115 | 140
16 | UGCAGUGAUGUUGCUAUUUGUCUUGAUAAACGAGGACCGGUACGGCCGCCACUCGAUUUCUCUCUUAUCGGGUAUGUUGUUUAGU [#21 K4 Tryptophan A Exclusion] | 156 | 186 | 172 | 205 | 113
17 | UGCAGUGAUGUUGCUAUUUGUCUUGAUUAACGAGGACCGGUACGGCCGCCACUCGAUUUCUCUCUAAUCGGGUAUGUUGUUUAGU [#20 K4 Tryptophan A Exclusion] | 154 | 200 | 170 | 187 | 119
18 | UGCAGUGAUGUUGCUAUUUUUCUUGAUUAACGAGGACCGGUACGGCCGCCACUCGAUUUCUCUCUAAUCCAGUAUGUUGUUUAAU [whbob_EX_Tryp_A_t4] | 114 | 137 | 114 | 143 | 86.1
19 | UGCAUGCUAGUAGUGAUGUUACAUGAUGAUACCAGUGCUUUUUUGCACCCUUGGCAGCGUCAUUUUGCAUGCACGUCGAAAGACG | 511 | 473 | 565 | 344 | 474
20 | UGCGUCGGUUCAGAUACCAGCCAAUUAGAGUCGAGUGAUGUUCGACAUUGAACGUCCAAAGGCCCUUGGCAGCUGGAUUGAGGAU [Same State Theophylline B GF 21] | 211 | 104 | 114 | 189 | 87.3
21 | UGCUCACAUAGAGGAUAUCUCAUAUGAGACAGUGAUGUUGUCUCAUAUAGACAUGUAAGUCUCAUGAGAGAAGGCUGUGUGAGCA [FMN B SS t8] | 140 | 106 | 117 | 99.3 | 113

Row | Sequence | apparent KD of K4 kissing-loop reporter (input ligand: FMN 200 uM) [nM] | apparent KD of K4 kissing-loop reporter (input ligand: arginine 13.2 mM) [nM] | apparent KD of K4 kissing-loop reporter (input ligand: none) [nM] | apparent KD of K4 kissing-loop reporter [1] [nM] | apparent KD of K4 kissing-loop reporter [2] [nM]
22 | UGGACCUGACUCGAUACGAGUCAAUGAGAUACCAGCCACGAAAGUGGCCCUUGGCAGCUCUGCCAGUGAUGUUGGUCAAGGUCCU [#SwitchBubble 9 #StaticStem] | 1540 | 1140 | 1530 | 765 | 1360
23 | UGGACGUUAUACAAAUAGUAUAACUGGGAUACCAGUGACGAAAGUCACCCUUGGCAGCUCAACUGCCAGUGAUGUUGGUAGUCCA [Astros-Eli-mod#4] | 307 | 158 | 172 | 239 | 145
24 | UGGAGGAAUCGACCUCGAAAGAGGAUGGAUACCAGAGAAGAAAUUCUCCCUUGGCAGCCAGUGAUGUUGGAACCUCCUAAAUAAA [#SwitchBubble 18 #K4Late] | 609 | 445 | 706 | 354 | 622
25 | UGGAGUUGACGAAAAGUCAACUCCCGAGAAGGAGCGGACGAAAGUCCAGGUAGGUCGCUCGCUACCAGUGAUGUUGGUACUUUAA | 147 | 189 | 174 | 219 | 147
26 | UGGAGUUGACGAAAAGUCAACUCCUGAGAAGGAGCGGACGAAAGUCCAGGUAGGUCGCUCACUACCAGUGAUGUUGGUACUUUAA | 228 | 285 | 320 | 361 | 222
27 | UGGAGUUGACGAAAAGUCAACUCCUGAGAAGGAGCGGACGAAAGUCCAGGUAGGUCGCUCACUGCCAGUGAUGUUGGUAAAUAAA [#OpenEnded 1 - Direct theophylline transfer] | 89.5 | 175 | 113 | 144 | 82.8
28 | UGGAGUUGACGAAAAGUCAACUCCUGAGAUACCAGUGACGAAAGUCACCCUUGGCAGCUCACUGCCAGUGAUGUUGGUAUAUAAA [#OpenEnded 4] | 82.6 | 71.4 | 61 | 146 | 124
29 | UGGAGUUGACGAAAAGUCAACUCCUGAGAUACCAGUGACGAAGGUCACCCUUGGCAGCUCACUGCCAGUGAUGUUGGAAGAUAAA [whbob_SS_Theo_A_w47] | 273 | 292 | 303 | 396 | 174
30 | UGGAGUUGACGAAAAGUCAACUCCUGAGAUACCAGUGACGAAGGUCACCCUUGGCAGCUCACUGCUAGUGAUGUUGGUAGUUAAA [whbob_SS_Theo_A_w50] | 1050 | 502 | 797 | 773 | 829
31 | UGGCAGGUAUCGGCCGCCACUUUCUAGUACAUACGCAUAUCUUUACCAUCAGUGAUGUUGAUCAUAAGGACCGGGAUACAUCAGG [theeternabot_exclusion_KL_Trp_B_22] | 243 | 208 | 249 | 220 | 200
32 | UGGGAUGUUAAAGGAUAUAGAAAGUGAUAUUAGAAAGUGAGUGAUGUUGAUGUAGGUGAUGAUAUGUUAGAAGGUUAACAAAACG [abcde] | 411 | 219 | 334 | 303 | 292
33 | UGUACCGAGGCAGGAUAUGUCGUCGAAAGACGAAAUGGAGUGAUGUUCCUUAAACUGCGAAAGCAGACAGAAGGGCCUUGGUACU [FmnBS 29 G10+C76] | 132 | 179 | 175 | 202 | 160
34 | UGUACCGAGUAAGGAUAUGUCGUCGAAAGACGAAAUGGAGUGAUGUUCCUUAAACUGCGAAAGCAGACAGAAGGUACUUGGUACU [FmnBS 29 A11+U75] | 139 | 217 | 233 | 224 | 203
35 | UGUACCGAGUCAGGAUAUCAUAAUAAUCCAGUGAUGUUGGAAUAACCAGUACAAAAGUGCUGGCCUUGAGAAGGGACUUGGUACU [FmnBS 4 #SwitchBubble #StaticStem] | 179 | 140 | 177 | 157 | 147
36 | UGUACCGAGUCAGGAUAUGGCGUCGAAAGACGAAAUGGAGUGAUGUUCCUUAUCUGCGAAAGCAGUCCAGAAGGGACUUGGUACU [FmnBS 27 #SwitchBubble #StaticStem #DoubleMagnetSystem] | 134 | 120 | 137 | 123 | 137
37 | UGUACCGAGUCAGGAUAUGGCGUCGAAAGACGAAUCUUAGUGAUGUUAAGGAUCUGCGAAAGCAGUCCAGAAGGGACUUGGUACU [FmnBS 26 U37+A49] | 236 | 422 | 495 | 444 | 475
38 | UGUACCGAGUCAGGAUAUGGCGUCGAAAGACGAAUCUUAGUGAUGUUAGGGAUCUGCGAAAGCAGUCUAGAAGGGACUUGGUACU [FmnBS 26 U37+U68] | 396 | 372 | 439 | 574 | 462
39 | UGUACCGAGUCAGGAUAUGGUAUAGCGGAAACGCACCAGUGAUGUUGGACGCGAAAGCGAUAAAAUCCAGAAGGGACUUGGUACU [FmnBS 20 #SwitchBubble #StaticStem #DoubleMagnetSystem] | 184 | 224 | 209 | 221 | 207
40 | UGUCAUGGAAACAUGAACGUUGAUGUUCGACGAGGACCGGUACGGCCGCCACUCGAGUAAUAGUCAGUGAUGUUGACUUGUUUAA [KL-SSTryp-A form1 sub4] | 49.4 | 101 | 69.1 | 90.9 | 55.6
41 | UGUCAUUGGUCGGCCGCCACUAGACGGACAUAAGUCUGUCAAUAAAGAGUGAUGUUCUUAAAUAAUAGGACCGGGACCGAUGACU [TrypBS 28 #SwitchBubble #StaticStem] | 527 | 458 | 451 | 503 | 201
42 | UGUCAUUGGUCGGCCGCCACUAGGACCGGGUAUAACCCAGUGAUGUUGGUAAAUACGGCCGCCACUAGGACCGGGACCGAUGACU [TrypBS 14 #DoubleAptamer #SwitchBubble #K4Middle] | 263 | 233 | 255 | 280 | 173
